Target: BF520.1 (human (infant BF520))
Experiment: BLI

Substance: BF520.W14.E3 native-like SOSIP trimer (complex)
- Kd: 8 nM
